From paper PMC6718625, “CryoEM structures of Arabidopsis DDR complexes involved in RNA-directed DNA methylation” (Nature Communications, 2019)

T1: DRD1 peptide 7 with C-terminal Strep II tag (Arabidopsis, UniProt Q9SIW2 45-99)
T1 construct: DRD1, Arabidopsis, region called peptide 7 in the N-terminal domain; source: E. coli Rosetta2 (DE3), pET21b, co-expressed with RDM1 and DMS3, purified as DDR′ complex (Strep Trap HP, Superdex 200); not shown: Strep II, C-terminal, kept
T1 sequence: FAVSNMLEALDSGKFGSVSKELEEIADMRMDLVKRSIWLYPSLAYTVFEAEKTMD

B1: 6xHis-RDM1 (natural protein, Arabidopsis)
chain: SSMTMELRPSGDSGSSDVDAEISDGFSPLDTSHRDVADEGSLLRRAEMYQDYMKQVPIPTNRGSLIPFTSWVGLSISMKQLYGQPLHYLTNVLLQRWDQSRFGTDSEEQRLDSIIHPTKAEATIWLVEEIHRLTPSHLHMALLWRSDPMYHSFIDPIFPEK
notes: RDM1, Arabidopsis; also called His tag-RDM1; source: E. coli Rosetta2 (DE3), pCDFDuet-1, co-expressed with DMS3; purified within the DR or DDR′ complex, or in lysate (pulldown); not shown: 6xHis, N-terminal, kept
B2: DMS3 (recombinant, co-expressed with His-RDM1) (natural protein, Arabidopsis)
chain: YPTGQQISFQTTPLNVQDPTRMMNLDQSSPVARNETQNGGGIAHAEFAMFNSKRLESDLEAMGNKIKQHEDNLKFLKSQKNKMDEAIVDLQVHMSKLNSSPTPRSENSDNSLQGEDINAQILRHENSAAGVLSLVETLHGAQASQLMLTKGVVGVVAKLGKVNDENLSQILSNYLGTRSMLAVVCRNYESVTALEAYDNHGNIDINAGLHCLGSSIGREIGDSFDAICLENLRPYVGQHIADDLQRRLDLLKPKLPNGECPPGFLGFAVNMIQIDPAYLLCVTSYGYGLRETLFYNLFSRLQVYKTRADMISALPCISDGAVSLDGGIIRKTGIFNLGNRDEVNVRFAKPTASRTMDNYSEAEKKMKELKWKKEKTLEDIKREQVLREHAVFNFGKKKEEFVRCLAQSSCTNQPMNTPR
notes: DMS3, Arabidopsis; residues 1-42 and 410-420 are said not to be visible in the maps; DMS3h, DMS3hc1 and DMS3hc2 are conformational states of the same chain in the structures; also called DMS3 WT; DMS3h; source: E. coli Rosetta2 (DE3), pCDFDuet-1, co-expressed with His-RDM1; purified within the DR or DDR′ complex, or in lysate (pulldown)
B3: DR complex (DMS3-RDM1) (complex, Arabidopsis)
chain 1: B1 chain
chain 2: B2 chain
notes: RDM1, Arabidopsis; DMS3, Arabidopsis; residues 1-42 and 410-420 are said not to be visible in the maps; Stoichiometry 4 DMS3 : 2 RDM1 by cryo-EM; also called DMS3-RDM1 complex; source: E. coli Rosetta2 (DE3), co-expressed from pCDFDuet-1, purified (His Trap HP or, with DRD1 peptide 7, Strep Trap HP; Superdex 200); not shown: 6xHis, N-terminal, kept; copies: 2 + 4
B4: His-DMS3 WT (natural protein, Arabidopsis, UniProt Q94A79 1-420, looked up)
chain: MYPTGQQISFQTTPLNVQDPTRMMNLDQSSPVARNETQNGGGIAHAEFAMFNSKRLESDLEAMGNKIKQHEDNLKFLKSQKNKMDEAIVDLQVHMSKLNSSPTPRSENSDNSLQGEDINAQILRHENSAAGVLSLVETLHGAQASQLMLTKGVVGVVAKLGKVNDENLSQILSNYLGTRSMLAVVCRNYESVTALEAYDNHGNIDINAGLHCLGSSIGREIGDSFDAICLENLRPYVGQHIADDLQRRLDLLKPKLPNGECPPGFLGFAVNMIQIDPAYLLCVTSYGYGLRETLFYNLFSRLQVYKTRADMISALPCISDGAVSLDGGIIRKTGIFNLGNRDEVNVRFAKPTASRTMDNYSEAEKKMKELKWKKEKTLEDIKREQVLREHAVFNFGKKKEEFVRCLAQSSCTNQPMNTPR
notes: DMS3, Arabidopsis; also called recombinant DMS3 WT; source: E. coli Rosetta2 (DE3), pCDF-His-DMS3, purified (Ni-NTA agarose)

Tests used:
[1] = target: the molecule itself; test: cryo-EM structure; single-particle cryoEM of the purified DR complex, 3.6 Å
6xHis-RDM1 = target: B1; test: as above; settings: both partners purified
[2] = target: T1, DRD1 peptide 7 with C-terminal Strep II …; test: cryo-EM structure; single-particle cryoEM of the purified DDR′ complex (DRD1 peptide 7-DMS3-RDM1), 3.5 Å; settings: both partners purified
[3] = target: the molecule itself; test: SEC; His tag affinity-purified DMS3 WT or G339E on analytical Superdex 200 10/300 GL, 20 mM HEPES-KOH pH 7.5, 150 mM NaCl

Binder: B1
stoichiometry N [1]: 2

Binder: B2
stoichiometry N (6xHis-RDM1): 2 DMS3 per RDM1 (4:2)
stoichiometry N [1]: 2

Binder: B3
stoichiometry N [2]: 1 peptide per DR complex

Binder: B4
binding result [3]: binds
